Columns and labels:
[1] = target: AIDSVAX recombinant gp120 immunogen A244 (AIDSVAX subtype E) (HIV-1 subtype E (CRF01_AE) strain A244); assay: ELISA, gp120 coated at 3 µg/ml, antibody titrated 0.002-10 µg/ml
[2] = target: AIDSVAX recombinant gp120 immunogen MN (AIDSVAX subtype B) (HIV-1 subtype B strain MN) (UniProt P05877); assay: as above

Substance	EC50 [1] [ng/mL]	EC50 [2] [ng/mL]
human anti-V2 monoclonal antibody 697-D	5.7	5.5
human anti-V2 monoclonal antibody 2158	4.1	3.9

Source: patent US20130071424A1
